Results on 3 molecules are retold here after patent publication US11512128B2, “VEGF/DLL4 binding agents and uses thereof” (MEREO BIOPHARMA 5, INC., priority 2011, dated 2022).

Numbering of substitutions follows the chain as printed.

One test concerns OMP-C8 colon tumor cells. As to the kind of experiment: Tumor growth in human skin graft model. Type of test: in vivo, NOD-SCID mice. Conditions: 25 mg/kg intraperitoneally once a week. How it is done: FIG. 5. Inhibition of colon tumor growth in vivo by an anti-VEGF/anti-DLL4 bispecific antibody. OMP-C8 colon tumor cells were injected subcutaneously into a human skin graft in NOD/SCID mice. Mice were treated with control antibody (-▪-), anti-hDLL4 antibody 21M18 (-▴-), anti-VEGF antibody bevacizumab (-∘-), or anti-VEGF/anti-DLL4 bispecific antibody 219R45-MB-21M18 (-▾-). Data is shown as tumor volume (photons/sec) over days post-treatment. Antibodies were administered intraperitoneally at a dose of 25 mg/kg once a week.
A human skin graft model has been reported which comprises a human skin graft and human tumor cells. A human skin graft is established and then human tumor cells are implanted into the skin graft, allowing the tumor cells to grow in an environment with human stroma and vasculature (Tahtis et al., 2003, Mol. Cancer Ther. 2:[…]). Human skin samples were obtained from neonatal foreskin tissue and grafted onto the lateral flank of NOD-SCID mice. After establishment of the skin graft, luciferase-labeled OMP-C8 colon tumor cells (20,000 cells) were injected intradermally into the human skin. Tumor growth was monitored by bioluminescence imaging using an IVIS imaging system (Caliper Life Sciences, Mountain View, Calif.). Tumors were allowed to grow until they reached 1.2×10^6 photons per second. Tumor-bearing mice (n=6 mice/group) were randomized and treated with control Ab, anti-hDLL4 antibody 21M18, anti-VEGF antibody bevacizumab, or anti-VEGF/anti-DLL4 bispecific antibody 219R45-MB-21M18. Animals were treated once a week and antibodies were administered intraperitoneally at a dose of 25 mg/kg. Tumor growth was monitored by bioluminescence imaging on the indicated days.

In another test the test system is OMP-C8 colon tumor. Nature of the test: OMP-C8 colon tumor recurrence model. Type of test: in vivo, NOD/SCID mice. Conditions: 21M18, bevacizumab 7.5 mg/kg, bispecifics 15 mg/kg weekly ip; irinotecan 45 mg/kg for first four weeks. On the procedure: FIG. 9. Inhibition of colon tumor growth by anti-VEGF/anti-DLL4 bispecific antibodies in tumor recurrence model. OMP-C8 colon tumor cells were injected subcutaneously in NOD/SCID mice. Mice were treated with control antibody (-▪-), anti-hDLL4 antibody 21M18 (-●-), anti-VEGF antibody bevacizumab (-▴-), a combination of 21M18 and bevacizumab (-▾-), anti-VEGF/anti-DLL4 bispecific antibody 219R45-MB-21M18 (-⋄-), or anti-VEGF/anti-DLL4 bispecific antibody 219R45-MB-21R79 (-∘-), all in combination with irinotecan. Antibodies 21M18 and bevacizumab were administered intraperitoneally at a dose of 7.5 mg/kg once a week, bispecific antibodies 219R45-MB-21M18 and 219R45-MB-21R79 were administered intraperitoneally at a dose of 15 mg/kg once a week, and irinotecan was administered for the first 4 weeks at a dose of 45 mg/kg. Data are shown as tumor volume (mm^3) over days post-treatment.
Single cell suspensions of OMP-C8 colon tumor xenografts (20,000 cells) were injected subcutaneously into the flanks of 6-8 week old NOD/SCID mice. […] Tumor growth was monitored and tumor volumes were measured with electronic calipers at the indicated time points. Data are expressed as mean±S.E.M.

The subject of test [1] is VEGF-induced proliferation of HUVEC cells. Nature of the test: HUVEC proliferation assay. Type of test: cell-based, human. Conditions: hVEGF 5 ng/ml, Alamar Blue on day 7. How it is done:
FIG. 3. Inhibition of VEGF-induced HUVEC proliferation by anti-VEGF/anti-DLL4 bispecific antibodies. Fluorescence intensity is read using an excitation wavelength of 530 nm and an emission wavelength of 590. 219R45-MB-21M18 (-●-); 219R45-MB-21R79 (-▴-); 219R45 (-▪-); Medium with no VEGF (-⋄-).
HUVEC cells were obtained from Lonza (Walkersville, Md.) and cultured in growth media (M199, 10% heat-inactivated FBS (HI-FBS), 50 μg/ml EGS, 1X heparin, 1 mM L-glutamine). For the HUVEC proliferation assay, a 96-well plate was pre-coated with 50 μl of 10 μg/ml rat tail collagen type I solution (collagen I in 0.02N acetic acid) and incubated at 4° C. overnight. After incubation, the plate was thoroughly aspirated to remove unbound collagen I solution and washed once with 200 μl DPBS. The HUVEC cells were removed from the surface of the growth flasks using an endothelial cell subclone reagent and centrifuged at 1200 rpm for 5 minutes at 4° C. The cells were resuspended in starvation/assay medium (M199 and 2% HI-FBS, 1× heparin, 5 U/ml heparin-glutamine) at a density of 10^5 cells/ml. The cells were seeded into the collagen-coated assay plate at 5000 cells/well, 50 ul/well. The cells were incubated for 3 hours at 37° C., washed one time, refed with 100 ul assay media, and incubated overnight at 37° C. The next day, bispecific antibodies 219R45-MB-21M18, 219R45-MB-21R79, parental antibody 219R45, or control antibody LZ1 were prepared in a mixture with human VEGF (R&D Biosystems, Minneapolis, Minn.). The antibodies were serially diluted 5-fold from […] to 0.25 nM in assay buffer in combination with hVEGF (final concentration 5 ng/ml). The mixture was pre-incubated at 37° C. for 2 hours. The medium was removed from the assay plate, and 100 μl of the antibody/hVEGF mixture was added to each well. […] The plate was read with a SpectraMax M5e Microplate reader (Molecular Devices, Sunnyvale CA) using a excitation wavelength of […] and an emission wavelength of 590 nm.
On the technique in general: Alamar Blue is a resazurin reagent that responds to reducing activity.

B1: 21M18: anti-DLL4 antibody, parental antibody (Hoey et al., 2009; U.S. Pat. No. 7,750,124) (antibody, V domains shown)
VH: QVQLVQSGAEVKKPGASVKISCKASGYSFTAYYIHWVKQAPGQGLEWIGYISSYNGATNYNQKFKGRVTFTTDTSTSTAYMELRSLRSDDTAVYYCARDYDYDVGMDYWGQGTLVTVSS
VL: DIVMTQSPDSLAVSLGERATISCRASESVDNYGISFMKWFQQKPGQPPKLLIYAASNQGSGVPDRFSGSGSGTDFTLTISSLQAEDVAVYYCQQSKEVPWTFGGGTKVEIK
B1: the “inhibition of tumor growth (bioluminescence)” value in the test with OMP-C8 colon tumor cells is “inhibited tumor growth”. For the same molecule, the “inhibition of tumor regrowth after irinotecan was stopped” value in the test with OMP-C8 colon tumor is recorded as “continued to inhibit tumor growth after treatment with irinotecan was stopped”.

B2: 219R45-MB-21R79: anti-VEGF/anti-DLL4 monovalent/bispecific antibody, heavy chains SEQ ID NO:7 and 6, light chains SEQ ID NO:8 (antibody)
heavy 1: QVQLVQSGAEVKKPGASVKVSCKASGYTFTNYWMHWVRQAPGQGLEWMGDINPSNGRTSYKEKFKRRVTLSVDKSSSTAYMELSSLRSEDTAVYFCTIHYDDKYYPLMDYWGQGTLVTVSSASTKGPSVFPLAPCSRSTSESTAALGCLVKDYFPEPVTVSWNSGALTSGVHTFPAVLQSSGLYSLSSVVTVPSSNFGTQTYTCNVDHKPSNTKVDKTVERKCCVECPPCPAPPVAGPSVFLFPPKPKDTLMISRTPEVTCVVVDVSHEDPEVQFNWYVDGVEVHNAKTKPREEQFNSTFRVVSVLTVVHQDWLNGKEYKCKVSNKGLPAPIEKTISKTKGQPREPQVYTLPPSREKMTKNQVSLTCLVKGFYPSDIAVEWESNGQPENNYKTTPPMLKSDGSFFLYSKLTVDKSRWQQGNVFSCSVMHEALHNHYTQKSLSLSPGK
heavy 2: QVQLVQSGAEVKKPGASVKISCKASGYSFTAYYIHWVKQAPGQGLEWIGYIANYNRATNYNQKFKGRVTFTTDTSTSTAYMELRSLRSDDTAVYYCARDYDYDVGMDYWGQGTLVTVSSASTKGPSVFPLAPCSRSTSESTAALGCLVKDYFPEPVTVSWNSGALTSGVHTFPAVLQSSGLYSLSSVVTVPSSNFGTQTYTCNVDHKPSNTKVDKTVERKCCVECPPCPAPPVAGPSVFLFPPKPKDTLMISRTPEVTCVVVDVSHEDPEVQFNWYVDGVEVHNAKTKPREEQFNSTFRVVSVLTVVHQDWLNGKEYKCKVSNKGLPAPIEKTISKTKGQPREPQVYTLPPSREEMTKNQVSLTCLVEGFYPSDIAVEWESNGQPENNYKTTPPMLDSDGSFFLYSELTVDKSRWQQGNVFSCSVMHEALHNHYTQKSLSLSPGK
light: DIVMTQSPDSLAVSLGERATISCRASESVDNYGISFMKWFQQKPGQPPKLLIYAASNQGSGVPDRFSGSGSGTDFTLTISSLQAEDVAVYYCQQSKEVPWTFGGGTKVEIKRTVAAPSVIFPPSDEQLKSGTASVVCLLNNFYPREAKVQWKVDNALQSGNSQESVTEQDSKDSTYSLSSTLTLSKADYEKHKVYACEVTHQGLSSPVTKSFNRGEC
modifications: 21R79 Heavy chain without predicted signal sequence; Light chain without predicted signal sequence
Consider B2, for which, in test [1], the “inhibition of VEGF-induced HUVEC proliferation” value is “inhibited HUVEC proliferation”.

B3: 219R45-MB-21M18: anti-VEGF/anti-DLL4 monovalent/bispecific antibody, heavy chains SEQ ID NO:7 and 5, light chains SEQ ID NO:8 (antibody)
heavy 1: B2 heavy 1
heavy 2: B2 heavy 2 with A52S, N53S, R56G
light: B2 light
modifications: 21R79 Heavy chain without predicted signal sequence; 21M18 Heavy chain without predicted signal sequence; Light chain without predicted signal sequence
Take B3: the “inhibition of VEGF-induced HUVEC proliferation” value in test [1] is listed as “inhibited HUVEC proliferation”. For the same molecule, the “inhibition of tumor growth (bioluminescence)” value with OMP-C8 colon tumor cells is reported as “more effective than either the anti-DLL4 antibody or the anti-VEGF antibody alone”. The “inhibition of tumor regrowth after irinotecan was stopped” value with OMP-C8 colon tumor is listed as “more effective at inhibiting tumor regrowth than the mixture of the two antibodies”.
